# Experiments:
# [1] = molecular target: NarV-RBPβ (C-terminal six-bladed β-propeller head domain of the Nariva virus receptor-binding protein, Glu184−Pro657) (Nariva virus); assay: SEC; Superdex 200 10/30 column, 10 mM Tris pH 8.0, 150 mM NaCl; compared with gel filtration standards; pre- and post-deglycosylation
# [2] = molecular target: NarV-RBPβ (C-terminal six-bladed β-propeller head domain of the Nariva virus receptor-binding protein, Glu184−Pro657) (Nariva virus); assay: SEC-SAXS; glycosylated protein, 45 µL at 5 mg/mL on Superdex 200 PC 3.2/30 in TBS, in-line SAXS; curves fitted with monomeric and dimeric crystal models
# [3] = molecular target: MosV-RBPβ (C-terminal six-bladed β-propeller head domain of the Mossman virus receptor-binding protein, Glu202−Thr632) (Mossman virus); assay: SEC; Superdex 200 10/30 column, 10 mM Tris pH 8.0, 150 mM NaCl; compared with gel filtration standards; pre- and post-deglycosylation
# [4] = molecular target: MosV-RBPβ (C-terminal six-bladed β-propeller head domain of the Mossman virus receptor-binding protein, Glu202−Thr632) (Mossman virus); assay: SEC-SAXS; glycosylated protein, 45 µL at 5 mg/mL on Superdex 200 PC 3.2/30 in TBS, in-line SAXS; curves fitted with monomeric and dimeric crystal models
substance,measurement,setting,value
"NarV-RBPβ (C-terminal six-bladed β-propeller head domain of the Nariva virus receptor-binding protein, Glu184−Pro657) (domain or fragment)",stoichiometry N,[1],2
same,stoichiometry N,[2],2
"MosV-RBPβ (C-terminal six-bladed β-propeller head domain of the Mossman virus receptor-binding protein, Glu202−Thr632) (domain or fragment)",stoichiometry N,[3],2
same,stoichiometry N,[4],2

# From PMC10653815
